The labels stand for the following.
B1: TrwG/VirB8 (natural protein, plasmid R388)
chain: MSKKQPKPVKAEQLKSYYEESRGLERDLIGEFVKSRKTAWRVATASGLFGLLGMVCGIVGFSQPAPAPLVLRVDNATGAVDVVTTLREHESSYGEVVDTYWLNQYVLNREAYDYNTIQMNYDTTALLSAPAVQQDYYKLFDGSNARDRVLGNKARITVRVRSIQPNGRGQATVRFTTQQHNSNGTVERPQHQIATIGYTYIGAPMRSSDRLLNPLGFQVTSYRADPEILNN
B2: TrwF/VirB9 (natural protein, plasmid R388)
chain: LDVPSSSRYDHRIRYVTYNPADVVQVDTVLGVATHIMLEEGEQYLTHAFGIPKPMPLPGRAGIFLSSRTAELANTNLIVVTDRRSYKFRLQMRNDRNGAMYELAFRYPDTQARQTREANARAAVEAAFEQRVGAYYNLKYMMSGDKDIAPVNAWDDGRFTYFKFSANADLPSIYFVDAEGNESLVPRTTVGSSNNIIAVHKVNPKWMIRLGNRALAIFNEAYDPNGVPNDTGTASPAVRRVNKGGN
B3: TrwJ/VirB5 (natural protein, plasmid R388, UniProt O50331 23-226, looked up)
chain: QGIPVFDGTRALDFVQQFARMKEQLDTAKDQLAEAQRMYEAVTGGRGLGDLMRNAQLREYLPDDLRTVYDSANGGGYSGISGSINDILRDERLNGSVADMRRSIEERSRTARTTDKAVGCGPTKGHSNASRRLKDEISRTQDQKAIEELQARIAGEQAAIQNETTKLQMIAQLRQAEQALISEQRRERNMPILSSGNQGMPTIQ
B4: TrwI/VirB6 (natural protein, plasmid R388)
chain: MAFELFTPLFNKIDQTTATYVTDISSRAIAAITPVVSVGLTLGFITYGWLIIRGAVEMPVAEFLNRCLRIGIIVSIALAGGLYQGEIANAITTVPDELASALLGNPTEGASAAALVDQSAQQGFDRASEAFEEAGFFSSDGLLYGLFGIIIPAGYGPAGAIGGAFLLLAKIALALLAGLGPLFILALIWQPTHRFFDQWAQQVLNYGLLIVLFAAVFGLLMQIFGSYMADLRFDGAQNVAYAIGGSVILSIVSIVLLMQLPSIASGLAGGIGLGYMWELRSMRSGAGAAMRGGRAMARGARAAPGAARGAAVGAANMAKTVATGGAGVARAAAGYFRGRKAG

Assay in all cases: cryo-EM structure
For series [1], the target named is T1, TrwE/VirB10 (plasmid R388, UniProt O50337 1-395).
T1 sequence: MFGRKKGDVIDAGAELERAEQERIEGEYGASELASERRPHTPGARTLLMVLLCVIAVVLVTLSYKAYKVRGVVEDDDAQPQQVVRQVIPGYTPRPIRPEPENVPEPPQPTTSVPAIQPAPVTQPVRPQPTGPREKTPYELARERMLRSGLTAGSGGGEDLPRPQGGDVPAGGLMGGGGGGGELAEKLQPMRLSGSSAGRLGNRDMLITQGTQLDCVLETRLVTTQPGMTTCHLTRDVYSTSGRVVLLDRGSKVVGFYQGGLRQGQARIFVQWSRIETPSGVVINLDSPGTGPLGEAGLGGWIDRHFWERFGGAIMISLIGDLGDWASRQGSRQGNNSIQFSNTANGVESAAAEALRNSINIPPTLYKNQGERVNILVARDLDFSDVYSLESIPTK

Series [2] deals with the molecule itself.
Series [3] addresses B4.

This note sets out measurements from doi:10.1101/2024.02.08.579498 (bioRxiv, 2024).

Broadly, the stoichiometry N is the number of molecules, sites or subunits per partner or assembly. As to B1, the binding result in series [1] is “binds”. Also, in series [2], the “stoichiometry N” value was determined as 24.

Regarding B2, the binding result in series [1] was “binds”. On to B3, for which the binding result in series [3] was “binds”. For B4, in series [1], the binding result is on record as “binds”.
